These results are taken from patent US20240409935A1, “Atg8ylation coordinates stress granule formation and mTOR inactivation in response to lysosomal damage” (priority 2023, published 2024).

The test deals with T1, GST-tagged NUFIP2 (Homo sapiens (Human)) (UniProt Q7Z417).
T1 sequence: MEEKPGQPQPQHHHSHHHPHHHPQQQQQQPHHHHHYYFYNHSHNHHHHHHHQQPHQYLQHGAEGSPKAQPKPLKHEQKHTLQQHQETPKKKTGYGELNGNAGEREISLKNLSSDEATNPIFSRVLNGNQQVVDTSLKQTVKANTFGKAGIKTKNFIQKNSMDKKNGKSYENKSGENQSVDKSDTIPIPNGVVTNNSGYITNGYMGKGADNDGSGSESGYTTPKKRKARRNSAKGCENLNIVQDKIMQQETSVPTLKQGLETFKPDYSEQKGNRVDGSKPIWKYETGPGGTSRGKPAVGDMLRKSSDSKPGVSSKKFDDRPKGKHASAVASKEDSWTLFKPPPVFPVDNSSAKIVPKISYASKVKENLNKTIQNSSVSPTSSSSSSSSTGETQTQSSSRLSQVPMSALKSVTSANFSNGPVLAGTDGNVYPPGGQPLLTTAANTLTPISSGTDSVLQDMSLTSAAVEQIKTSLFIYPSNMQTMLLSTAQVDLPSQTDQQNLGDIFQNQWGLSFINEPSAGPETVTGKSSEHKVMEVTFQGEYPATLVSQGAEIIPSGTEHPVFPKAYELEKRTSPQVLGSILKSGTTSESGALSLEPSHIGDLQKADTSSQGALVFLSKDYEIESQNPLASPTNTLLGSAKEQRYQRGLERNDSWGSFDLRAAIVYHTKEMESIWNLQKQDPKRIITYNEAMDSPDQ
The experiment in a line: GST pulldown of in vitro translated radiolabeled Myc-G3BP1 with GST-NUFIP2.

Chain of Myc-tagged G3BP1 (in vitro translated and radiolabeled) (Q13283 whole entry): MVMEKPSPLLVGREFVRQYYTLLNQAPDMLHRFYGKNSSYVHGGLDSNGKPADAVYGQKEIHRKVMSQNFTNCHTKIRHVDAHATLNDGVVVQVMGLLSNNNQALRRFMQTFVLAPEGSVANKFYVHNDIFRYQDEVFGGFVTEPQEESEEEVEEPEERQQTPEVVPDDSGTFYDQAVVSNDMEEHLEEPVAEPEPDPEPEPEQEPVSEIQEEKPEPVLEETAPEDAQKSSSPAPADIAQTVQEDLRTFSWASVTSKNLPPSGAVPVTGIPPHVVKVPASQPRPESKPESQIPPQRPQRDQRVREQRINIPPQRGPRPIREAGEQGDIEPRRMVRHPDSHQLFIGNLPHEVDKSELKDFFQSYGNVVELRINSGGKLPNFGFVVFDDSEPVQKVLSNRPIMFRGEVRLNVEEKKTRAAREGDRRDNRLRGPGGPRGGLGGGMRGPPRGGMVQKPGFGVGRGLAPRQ

As for “Myc-tagged G3BP1 (in vitro translated and radiolabeled) (from UniProt Q13283 1-466)”, the % binding (percent of the input bound) worked out at 60%.
